Experimental data as given in US20260234255A1 (Genmab, published 2026).
Substitutions are numbered along the chain they refer to.

Experiments:
human CD30 [1] = biological target: T1, human CD30 (human, UniProt P28908 19-595); assay: flow cytometry, KI-JK cells, experiment N = 1
T1 construct: The same molecule is used for CD30 on HL/ALCL/NHL cell lines; also called huCD30; TNFRSF8
T1 sequence: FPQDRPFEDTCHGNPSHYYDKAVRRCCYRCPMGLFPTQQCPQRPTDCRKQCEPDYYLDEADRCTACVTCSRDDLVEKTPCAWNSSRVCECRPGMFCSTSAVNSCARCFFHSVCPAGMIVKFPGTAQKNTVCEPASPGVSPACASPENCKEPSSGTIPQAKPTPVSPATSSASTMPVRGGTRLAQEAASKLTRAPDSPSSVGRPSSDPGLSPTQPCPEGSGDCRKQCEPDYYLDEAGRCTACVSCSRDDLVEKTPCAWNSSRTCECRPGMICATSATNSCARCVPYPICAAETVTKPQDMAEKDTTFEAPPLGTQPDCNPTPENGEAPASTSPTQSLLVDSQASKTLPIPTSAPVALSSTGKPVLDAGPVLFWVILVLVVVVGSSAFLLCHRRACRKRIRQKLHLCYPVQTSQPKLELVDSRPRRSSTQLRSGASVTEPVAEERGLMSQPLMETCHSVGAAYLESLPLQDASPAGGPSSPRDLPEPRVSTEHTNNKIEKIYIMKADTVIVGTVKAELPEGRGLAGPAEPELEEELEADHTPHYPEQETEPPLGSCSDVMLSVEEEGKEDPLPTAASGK

human CD30 [2] = biological target: T1, human CD30; assay: flow cytometry, KI-JK cells, experiment N = 2
human CD30 [3] = biological target: T1, human CD30; assay: flow cytometry, HDLM-2 cells
In short: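 CD3×CD30 bispecific antibodies, 3-fold serial dilutions from 0.0046 to 10 μg/mL, incubated with 3×10⁴ SU-DHL-1 (ALCL) or HDLM-2 (HL) cells for 30 min at 4 °C, then secondary antibody 30 min at 4 °C. Live cells gated by FSC/SSC and TO-PRO-3 exclusion; binding curves fitted by four-parameter sigmoidal regression.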

human CD30 [4] = biological target: T1, human CD30; assay: flow cytometry, L-428 cells, experiment N = 1
human CD30 [5] = biological target: T1, human CD30; assay: cell-based or functional assay
human CD30 [6] = biological target: T1, human CD30; assay: flow cytometry, DL-40 cells (ALCL), range of 3 tests
Procedure: (§1) Cells (3×10⁴ cells/well) were incubated in polystyrene 96-well round-bottom plates (Greiner bio-one, cat. no. 650180) with serial dilutions of antibodies (range 0.0046 to 10 μg/mL in 3-fold dilution steps) in 50 μL staining buffer at 4° C. for 30 min. After washing twice in staining buffer, cells were incubated with 50 μL secondary antibody at 4° C. for 30 min. […] Next, cells were washed twice in staining buffer, resuspended in 100 μL staining buffer supplemented with TO-PRO-3 iodide (Thermo Fisher Scientific; cat. no. T3605; 1:8000 dilution) and analyzed on a FACSCelesta flow cytometer (BD Biosciences, USA). Live cells were gated based on FSC/SSC and absence of TOPRO-3 staining. Binding curves were analyzed by non-linear regression of log-transformed data (sigmoidal dose-response with variable slope, four parameters) using GraphPad Prism V7.02 software (GraphPad Software, San Diego, CA, USA).

[7] = biological target: T2, cynomolgus monkey (Macaca fascicularis) CD30 (cynomolgus monkey, UniProt P28908 19-595 (human entry)); assay: flow cytometry, HEK293 cells transfected with mfCD30
T2 construct: also called mfCD30
T2 chain: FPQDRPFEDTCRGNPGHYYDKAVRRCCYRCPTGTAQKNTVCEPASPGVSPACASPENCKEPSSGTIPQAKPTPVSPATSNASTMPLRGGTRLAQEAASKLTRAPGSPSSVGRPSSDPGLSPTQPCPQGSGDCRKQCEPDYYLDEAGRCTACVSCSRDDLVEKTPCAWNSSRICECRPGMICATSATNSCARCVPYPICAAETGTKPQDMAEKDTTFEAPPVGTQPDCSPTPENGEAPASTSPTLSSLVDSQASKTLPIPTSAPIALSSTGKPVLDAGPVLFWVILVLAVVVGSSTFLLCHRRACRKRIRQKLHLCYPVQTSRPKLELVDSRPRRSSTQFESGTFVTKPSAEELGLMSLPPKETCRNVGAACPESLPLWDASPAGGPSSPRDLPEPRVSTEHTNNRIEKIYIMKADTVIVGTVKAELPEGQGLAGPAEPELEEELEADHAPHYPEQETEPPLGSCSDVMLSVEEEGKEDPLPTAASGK
Procedure: Cells (3×10⁴ cells/well) were incubated in polystyrene 96-well round-bottom plates (Thermo Scientific, cat. no. 163320) with serial dilutions of antibodies (ranging from 0.0002 to 50 μg/mL in 4-fold dilution steps) in 50 μL staining buffer at 4° C. for 30 min. Experiments were performed in technical duplicate. After washing twice in staining buffer, cells were incubated in 50 μL secondary antibody at 4° C. for 30 min. As a secondary antibody, R-PE-conjugated goat-anti-human IgG (Jackson ImmunoResearch, UK; cat. no. 109⁻¹¹⁶-098) diluted 1:200 in staining buffer was used. Cells were washed twice in staining buffer, resuspended in 30 μL staining buffer containing 0.4% EDTA and the ToPro-3 viability marker (Invitrogen, cat. no. T3605) diluted 1:10,000. Cells were analyzed on an iQue Screener (Intellicyt Corporation, USA). Binding curves were analyzed using non-linear regression (sigmoidal dose-response with variable slope) using GraphPad Prism V9.0.0 software (GraphPad Software, San Diego, CA, USA).

human CD30 [8] = biological target: T1, human CD30; assay: flow cytometry, L-82 cells (ALCL), average of 2 tests
Procedure: as §1

human CD30 [9] = biological target: T1, human CD30; assay: flow cytometry, L-82 cells (ALCL), range of 2 tests
Procedure: as §1

human CD30 [10] = biological target: T1, human CD30; assay: flow cytometry, NCEB-1 cells (MCL), range of 3 tests
Procedure: as §1

human CD30 [11] = biological target: T1, human CD30; assay: flow cytometry, DEL cells (ALCL), range of 3 tests
Procedure: as §1

human CD30 [12] = biological target: T1, human CD30; assay: flow cytometry, L-428 cells (HL), average of 2 tests
Procedure: as §1

B1: bsG1-huCD3-FEALxCD30-MDX060-FEAR (bispecific antibody, human IgG1, kappa, lambda)
heavy 1: not shown
light 1: not shown
heavy 2: QVQLQQWGAGLLKPSETLSLTCAVYGGSFSAYYWSWIRQPPGKGLEWIGDINHGGGTNYNPSLKSRVTISVDTSKNQFSLKLNSVTAADTAVYYCASLTAYWGQGSLVTVSSASTKGPSVFPLAPSSKSTSGGTAALGCLVKDYFPEPVTVSWNSGALTSGVHTFPAVLQSSGLYSLSSVVTVPSSSLGTQTYICNVNHKPSNTKVDKRVEPKSCDKTHTCPPCPAPEFEGGPSVFLFPPKPKDTLMISRTPEVTCVVVAVSHEDPEVKFNWYVDGVEVHNAKTKPREEQYNSTYRVVSVLTVLHQDWLNGKEYKCKVSNKALPAPIEKTISKAKGQPREPQVYTLPPSREEMTKNQVSLTCLVKGFYPSDIAVEWESNGQPENNYKTTPPVLDSDGSFFLYSRLTVDKSRWQQGNVFSCSVMHEALHNHYTQKSLSLSPG
light 2: DIQMTQSPTSLSASVGDRVTITCRASQGISSWLTWYQQKPEKAPKSLIYAASSLQSGVPSRFSGSGSGTDFTLTISSLQPEDFATYYCQQYDSYPITFGQGTRLEIKRTVAAPSVFIFPPSDEQLKSGTASVVCLLNNFYPREAKVQWKVDNALQSGNSQESVTEQDSKDSTYSLSSTLTLSKADYEKHKVYACEVTHQGLSSPVTKSFNRGEC
notes: also called bsG1-huCD3xCD30-MDX060
In the case of B1, the EC50 (human CD30 [1]) is reported as 0.16 µg/mL, the EC50 (human CD30 [2]) is reported as 0.0735 µg/mL and the “EC50 (read off the curve)” value (human CD30 [3]) is reported as ~0.3 µg/mL. For the same binder, the EC50 (human CD30 [4]) was 0.154 µg/mL, the “T-cell mediated cytotoxicity of Karpas-299 cells, IC50 average” value (human CD30 [5]) was 0.033 µg/mL and the “T-cell mediated cytotoxicity of Karpas-299 cells, maximum lysis average” value (human CD30 [5]) was 53.7%.

B2: bsG1-huCD3-FEALxCD30-MDX060-FERR (bispecific antibody, human IgG1, kappa, lambda)
heavy 1: not shown
light 1: not shown
heavy 2: B1 heavy 2 with G231R, A260D
light 2: B1 light 2
notes: Bispecific IgG1 made by controlled Fab-arm exchange; also called bsIgG1-huCD3-FEALxCD30-MDX060-FERR; bsG1-huCD3×CD30-MDX060
With B2 the EC50 (human CD30 [6]) was 0.17 to 0.347 µg/mL, the binding result [7] was “binds” and the EC50 (human CD30 [8]) was 0.2 µg/mL. It also gave an EC50 (human CD30 [9]) of 0.184 to 0.215 µg/mL, an EC50 (human CD30 [10]) of 0.118 to 0.2 µg/mL and an EC50 (human CD30 [11]) of 0.143 to 0.267 µg/mL. For the same binder, the “T-cell mediated cytotoxicity of Karpas-299 cells, IC50 average” value (human CD30 [5]) was 0.029 µg/mL, the “T-cell mediated cytotoxicity of Karpas-299 cells, maximum lysis average” value (human CD30 [5]) was 52.3% and the EC50 (human CD30 [12]) was 0.174 µg/mL.
